Assay: Nano differential scanning fluorimetry of IL-38-Fc variants (apparent melting temperature)
Format: physicochemical
Settings: N-terminal IL-38-Fc variants, knobs-into-holes IgG1-Fc, IL-38 (C70V, C37S, C38R, C43A, C67A, C123S)
Description: Indicated IL-38 chains differing in their N-terminus were expressed and purified from Expi293 cells. The relative purification yield is indicated between the N-terminal variants. The stability of the purified product was monitored by nano differential scanning fluorimetry and is expressed as the apparent melting temperature (Tm). N-terminal variants (except 2-152) were trialled as “knobs-into-holes” IgG1-Fc fusions utilising the IL-38 (C70V, C37S, C38R, C43A, C67A, C123S) sequence. The 2-152 N-terminal variant was trialled as “knobs-into-holes” IgG1-Fc fusions utilising the IL-38 (C2A, C70V, C37S, C38R, C43A, C67A, C123S) sequence.
Indicated linker variants were expressed and purified from Expi293 cells. The relative purification yield is indicated between the linker variants. The stability of the purified product was monitored by nano differential scanning fluorimetry and is expressed as the apparent melting temperature (Tm). […] All N-terminal linker variants were trialled as “knobs-into-holes” IgG1-Fc fusions utilising the IL-38 (C70V, C37S, C38R, C43A, C67A, C123S) sequence.

## 3-152: Knobs-into-holes IgG1-Fc fusion, IL-38 chain residues 3-152 (C70V, C37S, C38R, C43A, C67A, C123S); probably SEQ ID NO: 25/26
  Stability (apparent melting temperature, Tm): 66.0 °C

— patent US20250034222A1, “IL-38 VARIANTS” (Monash University, priority 2021, published 2025)
